The values below come from PMC314469, “Protein Interaction Networks by Proteome Peptide Scanning” (PLoS Biology, 2004).

What all share (test): SPOT array
For experiment [1], the target named is T1, Boi1 SH3 (BOI1_YEAST), P38041.
T1 chain: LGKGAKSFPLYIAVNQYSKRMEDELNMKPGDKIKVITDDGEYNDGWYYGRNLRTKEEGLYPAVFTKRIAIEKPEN

In experiment [2] the target is T2, Boi2 SH3 (BOI2_YEAST), P39969.
T2 chain: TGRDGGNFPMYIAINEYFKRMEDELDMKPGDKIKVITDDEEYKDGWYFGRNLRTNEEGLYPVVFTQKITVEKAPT

The target in experiment [3] is T3, Myo5 SH3 (MYO5_YEAST), Q04439.
T3 chain: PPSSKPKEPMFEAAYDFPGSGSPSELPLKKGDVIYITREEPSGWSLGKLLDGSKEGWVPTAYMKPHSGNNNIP

Experiment [4] concerns the target T4, Rvs167 SH3 (RV167_YEAST), P39743.
T4 chain: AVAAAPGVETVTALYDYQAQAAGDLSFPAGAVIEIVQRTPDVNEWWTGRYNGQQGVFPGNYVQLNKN

In experiment [5] the target is Sho1 SH3 (SHO1_YEAST), P40073.
Chain of Sho1 SH3 (SHO1_YEAST), P40073 (P40073 295-366): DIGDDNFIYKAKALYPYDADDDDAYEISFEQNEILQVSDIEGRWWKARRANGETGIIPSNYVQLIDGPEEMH
For experiment [6], the target named is T5, Yfr024 SH3 (LSB3_YEAST), P43603.
T5 chain: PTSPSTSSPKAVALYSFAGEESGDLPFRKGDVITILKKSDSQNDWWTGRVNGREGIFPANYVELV

Experiment [7] concerns the target T6, Yhr016c SH3 (YSC84_YEAST), P32793.
T6 chain: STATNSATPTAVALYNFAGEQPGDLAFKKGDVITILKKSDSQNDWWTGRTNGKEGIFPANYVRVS

B1: YBL017C 684-697 (peptide)
chain: KTKKKTVPVKPLQL
In the case of B1, the normalised SPOT signal, Boehringer light units (BLU); mean over the file's lines of this peptide in experiment [1] is 1240; in experiment [2] it was 67.6; in experiment [3], 359; in experiment [4], 44.3; in experiment [5] it was 34.1; in experiment [6] it was 179. This molecule gave a normalised SPOT signal, Boehringer light units (BLU); mean over the file's lines of this peptide in experiment [7] of 38.

B2: YDR466W 448-461 (peptide)
chain: KSIPRTKPNVPPLQ
For the molecule B2, the normalised SPOT signal, Boehringer light units (BLU); mean over the file's lines of this peptide in experiment [1] came out at 613; in experiment [2], 5.4; in experiment [3], 343; in experiment [4], 39.9; in experiment [5], 46.8; in experiment [6] it was 62.6. The molecule also returned a normalised SPOT signal, Boehringer light units (BLU); mean over the file's lines of this peptide in experiment [7] of 27.5.

B3: YGR033C 56-69 (peptide)
chain: KTRNKPKPLWPQVK
Take B3: the normalised SPOT signal, Boehringer light units (BLU); mean over the file's lines of this peptide in experiment [1] came to 1200; in experiment [2], 43.4; in experiment [3] it was 262; in experiment [4], 56.8; in experiment [5] it was 115; in experiment [6], 178. Also, in experiment [7], the normalised SPOT signal, Boehringer light units (BLU); mean over the file's lines of this peptide came to 35.

B4: YGL012W 364-377 (peptide)
chain: KTGRKTFPFLPYQI
Take B4: the normalised SPOT signal, Boehringer light units (BLU); mean over the file's lines of this peptide worked out at 129 in experiment [1]; 29.6 in experiment [2]; 466 in experiment [3]; 56.2 in experiment [4]; 140 in experiment [5]; 171 in experiment [6]. Moreover, the normalised SPOT signal, Boehringer light units (BLU); mean over the file's lines of this peptide in experiment [7] stood at 26.1.

B5: YMR014W 24-37 (peptide)
chain: KSLQKFEPRYPKTA
Take B5: the normalised SPOT signal, Boehringer light units (BLU); mean over the file's lines of this peptide came out at 815 in experiment [1]; 0 in experiment [2]; 245 in experiment [3]; 112 in experiment [4]; 38.8 in experiment [5]; 134 in experiment [6]. Besides, the normalised SPOT signal, Boehringer light units (BLU); mean over the file's lines of this peptide in experiment [7] stood at 50.8.

B6: YBR055C 231-244 (peptide)
chain: KSYRKADPTNPQGW
As for B6, the normalised SPOT signal, Boehringer light units (BLU); mean over the file's lines of this peptide is 78.2 in experiment [1]; 0 in experiment [2]; 103 in experiment [3]; 56 in experiment [4]; 29 in experiment [5]; 94.7 in experiment [6]. Besides, the normalised SPOT signal, Boehringer light units (BLU); mean over the file's lines of this peptide in experiment [7] was 9.6.
